Measured values: patent publication US20250034266A1
Positions count from the first letter of the chain named.

B1: Hu149-4 (antibody, human IgG1, V domains shown)
VH: EVQLVESGGGLVQPGGSLKLSCAASGFTFNTYAMNWVRQASGKGLEWVGRIRSKSNFYATYYAASVKGRFTISRDDSKNTAYLQMNSLKTEDTAVYYCTRGRDYGSSYAMDYWGQGTLVTVSS
VL: DIVMTQSPLSLPVTPGEPASISCRSSKSLLHSNANTYLYWFLQKPGQSPQLLIYRMSNLASGVPDRFSGSGSGTDFTLKISRVEAEDVGVYYCMQHLEYPLTFGGGTKVELK
B2: Hu149-9 (antibody, human IgG1, V domains shown)
VH: B1 VH with Y61A
VL: B1 VL
B3: Hu149-12G1x (antibody, V domains shown, not shown: a dimerising Fc or GST)
VH: B1 VH with Y61A, R102K, D103E
VL: B1 VL

Columns and labels:
human CCR4 (human) = molecular target: T1, human CCR4 (human) (UniProt P51679); assay: FACS on ExpiCHO-S-human CCR4 cells
T1 sequence (looked up): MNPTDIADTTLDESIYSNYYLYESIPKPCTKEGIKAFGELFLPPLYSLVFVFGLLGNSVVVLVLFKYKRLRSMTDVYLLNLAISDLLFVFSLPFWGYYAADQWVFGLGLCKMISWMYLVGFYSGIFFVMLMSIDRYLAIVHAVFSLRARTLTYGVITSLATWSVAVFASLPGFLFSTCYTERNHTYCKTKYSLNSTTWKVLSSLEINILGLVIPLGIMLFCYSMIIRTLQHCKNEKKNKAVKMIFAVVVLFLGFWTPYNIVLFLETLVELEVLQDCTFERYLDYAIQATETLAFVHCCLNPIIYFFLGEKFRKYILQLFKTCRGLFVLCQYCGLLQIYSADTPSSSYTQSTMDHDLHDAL

human CCR1 (human) = molecular target: T2, human CCR1 (human) (UniProt P32246); assay: FACS on ExpiCHO-S-human CCR1 cells
T2 sequence (looked up): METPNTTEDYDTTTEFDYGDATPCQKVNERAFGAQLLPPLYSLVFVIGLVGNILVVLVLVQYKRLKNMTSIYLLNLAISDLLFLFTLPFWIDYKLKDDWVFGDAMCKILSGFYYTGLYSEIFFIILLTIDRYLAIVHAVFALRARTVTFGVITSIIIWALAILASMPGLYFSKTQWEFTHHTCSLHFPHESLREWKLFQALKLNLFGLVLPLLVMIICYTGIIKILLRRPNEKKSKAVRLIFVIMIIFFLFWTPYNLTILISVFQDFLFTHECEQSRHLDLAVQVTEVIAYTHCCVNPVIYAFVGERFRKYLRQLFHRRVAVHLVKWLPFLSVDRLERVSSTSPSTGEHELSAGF

human CCR8 (human) = human CCR8 (human) (UniProt P51685); assay: cell-based or functional assay
human CCR8 (human), sequence (P51685 whole entry): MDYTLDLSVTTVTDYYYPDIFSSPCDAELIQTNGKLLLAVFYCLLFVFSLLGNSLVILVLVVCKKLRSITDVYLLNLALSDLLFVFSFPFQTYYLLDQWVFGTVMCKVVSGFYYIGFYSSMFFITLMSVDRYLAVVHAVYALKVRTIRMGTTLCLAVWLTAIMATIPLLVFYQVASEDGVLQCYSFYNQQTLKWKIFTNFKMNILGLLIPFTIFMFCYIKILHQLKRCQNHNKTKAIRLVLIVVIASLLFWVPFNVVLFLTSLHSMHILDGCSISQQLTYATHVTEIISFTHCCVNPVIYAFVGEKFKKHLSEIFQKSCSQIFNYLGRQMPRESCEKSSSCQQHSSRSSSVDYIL

| Binder | Max MFI (human CCR4 (human)) [MFI] | Max MFI (human CCR1 (human)) [MFI] | EC50, ADCC reporter, F variant CD16a/NFAT-Jurkat, target CHO-K1-human CCR8 cells (human CCR8 (human)) [pM] | EC50, ADCC reporter, F variant CD16a/NFAT-Jurkat, target HuT78 cells (human CCR8 (human)) [pM] | EC50, ADCC reporter, V variant CD16a/NFAT-Jurkat, target CHO-K1-human CCR8 cells (human CCR8 (human)) [pM] | EC50, ADCC reporter, V variant CD16a/NFAT-Jurkat, target HuT78 cells (human CCR8 (human)) [pM] | EC50, ADCC with human PBMCs, target CHO-K1-human CCR8 cells (human CCR8 (human)) [pM] | Max (RLU), ADCC reporter, F variant CD16a/NFAT-Jurkat, target CHO-K1-human CCR8 cells (human CCR8 (human)) [RLU] | Max (RLU), ADCC reporter, F variant CD16a/NFAT-Jurkat, target HuT78 cells (human CCR8 (human)) [RLU] | Max (RLU), ADCC reporter, V variant CD16a/NFAT-Jurkat, target CHO-K1-human CCR8 cells (human CCR8 (human)) [RLU] | Max (RLU), ADCC reporter, V variant CD16a/NFAT-Jurkat, target HuT78 cells (human CCR8 (human)) [RLU] | Max specific lysis (%), ADCC with human PBMCs, target CHO-K1-human CCR8 cells (human CCR8 (human)) [%] |
| --- | --- | --- | --- | --- | --- | --- | --- | --- | --- | --- | --- | --- |
| B1 | 44 |  |  |  |  |  |  |  |  |  |  |  |
| B2 | 32.8 | 226 |  |  |  |  |  |  |  |  |  |  |
| B3 |  |  | 2.99 | 4.28 | 5.05 | 4.58 | 0.828 | 8.27e+06 | 1.56e+07 | 4.13e+06 | 8.88e+06 | 53 |
